Data taken from US20030162275A1, “Dog flavin-containing monooxygenase” (priority 2002, published 2003).
Residue numbers refer to the chain shown, from its start.

B1: SEQ ID NO: 2: Amino acid sequence of a variant of dog wild-type FMO1 (protein, listed as Canis familiaris)
chain: MAKRVAIVGAGVSGLASIKCCLEEGLEPTCFERSDDLGGLWRFTEHVEGGRASLYKSVVSNSCKEMSCYSDFPFPEDYPNYVPNSQFLEYLKMYANRFSLLKCIRFKTKVCKVTKCPDFTVTGQWEVVTQHEGKQESAIFDAVMVCTGFLTNPHLPLDCFPGINTFKGQYFHSRQYKHPDIFKDKRVLVIGMGNSGTDIAVETSRLAKKVFLSTTGGAWVMSRVFDSGYPWDVVFMTRYQNMFRNSLSTPIVTWLMARKMNSWFNHANYGLVPEDRTQLREPVLNDELPGCIITGKVLIKPSIKEVKENSVVFNNTPKEEPIDIIVFATGYTFAFPFLDETVVKVENGQASLYKYIFPVHLPKPTLAVIGLIKPLGSMIPTGETQARWAVRVLKGINKLPPQSAMTEEVNARKENKPSGFGLCYCKALQSDYITYIDELLTNINAKPNLFSLPLTDPRLALTTFFGPCTPYQFRLTGPGKWKGARNAILTQWDRTFKVTKTRIVQESPTPFASLLKLLSLLALLMAIFQIFL
B2: SEQ ID NO: 6: Amino acid sequence of dog wild-type FMO1, expressed using a baculovirus expression system in insect cells (protein, listed as Canis familiaris)
chain: B1 chain with G49E, V233M, Y239F, S248P, P453L, T463I, Q529L
B3: SEQ ID NO: 4: Amino acid sequence of another variant of dog wild-type FMO1 (protein, listed as Canis familiaris)
chain: B1 chain with G49E, C159Y, F182L, V233M, Y239F, S248P, L422S, P453L, T463I

Assay: Enzyme activity assay (MPT S-oxidase activity of expressed FMO1 polypeptides in Sf-9 cell microsomes)
Format: biochemical, dog
Conditions: 25 ug Sf-9 cell microsomal protein, 1 mM NADPH, 0.1 M tricine, 37° C., 10 minutes, HPLC detection of MPT sulfoxide at 240 nm
Method: Examples of particular variants of polypeptides of the invention include polypeptide of SEQ ID NO: 2 and SEQ ID NO: 4. […] This enzyme assay represents a single known method for the detemination of enzyme activity of various FMOs. Briefly, the methyl-p-tolyl (MPT) S-oxidase activity of the expressed variants of the polypeptide was assayed as a measure of FMO function. […] Incubations included 25 ug of Sf-9 cell (containing the polypeptide) microsomal protein 1 mM NADPH, and 0.1 M tricine. Incubations were started by the addition of MPTS and were conducted at 37° C. for at least 10 minutes. Following termination of the incubation, the supernatant was analyzed by high performance liquid chromatography and the MPT sulfoxide product was detected by absorbance at 240 nm and quantitated using an authentic standard of the sulfoxide metabolite.
An achiral assay method was conducted according to the data sheets provided by Gentest, with some modifications. Based on preliminary determinations of the linearity of metabolite formation with protein concentration and incubation time, incubation conditions were established using 50 μg (tissue microsomes) or 25 μg (Sf-9 cell microsomes) protein, 1 mM NADPH, and 0.1 M tricine in a total volume of 0.25 ml. Samples were incubated for 3 min at 37° C. followed by the addition of substrate (in 1% methanol) to start the reaction. Incubations were terminated after 10 minutes by the addition of 50 μl of acetonitrile, and samples were centrifuged to precipitate protein. The supernatant was analyzed by HPLC, using a 4.6 ×250 mm 5 micron C18 analytical column (Luna™C18(2), Phenomenex, Torrance Calif.) and a 1 ml/min gradient elution of 40:60/methanol:water to 60:40/methanol/water over 8 minutes, followed by substrate elution with 95% methanol. The MPT sulfoxide product was detected by absorbance at 240 nm and quantitated using the authentic standard. Imipramine N-oxidation was measured by substrate-dependent oxidation of NADPH at 340 nm Wyatt et al., 1998, using 25-50 μg of microsomal protein in a total volume of 750 μl.

Row | Molecule | enzyme activity (MPT S-oxidase activity as a measure of FMO function)
1 | B1 | inactive
2 | B2 | active
3 | B3 | inactive
